Results as given in IntAct's records for PubMed 15294869.

Target: pir_arath PIR (UniProt Q5S2C3)
Sequence (Q5S2C3 whole entry): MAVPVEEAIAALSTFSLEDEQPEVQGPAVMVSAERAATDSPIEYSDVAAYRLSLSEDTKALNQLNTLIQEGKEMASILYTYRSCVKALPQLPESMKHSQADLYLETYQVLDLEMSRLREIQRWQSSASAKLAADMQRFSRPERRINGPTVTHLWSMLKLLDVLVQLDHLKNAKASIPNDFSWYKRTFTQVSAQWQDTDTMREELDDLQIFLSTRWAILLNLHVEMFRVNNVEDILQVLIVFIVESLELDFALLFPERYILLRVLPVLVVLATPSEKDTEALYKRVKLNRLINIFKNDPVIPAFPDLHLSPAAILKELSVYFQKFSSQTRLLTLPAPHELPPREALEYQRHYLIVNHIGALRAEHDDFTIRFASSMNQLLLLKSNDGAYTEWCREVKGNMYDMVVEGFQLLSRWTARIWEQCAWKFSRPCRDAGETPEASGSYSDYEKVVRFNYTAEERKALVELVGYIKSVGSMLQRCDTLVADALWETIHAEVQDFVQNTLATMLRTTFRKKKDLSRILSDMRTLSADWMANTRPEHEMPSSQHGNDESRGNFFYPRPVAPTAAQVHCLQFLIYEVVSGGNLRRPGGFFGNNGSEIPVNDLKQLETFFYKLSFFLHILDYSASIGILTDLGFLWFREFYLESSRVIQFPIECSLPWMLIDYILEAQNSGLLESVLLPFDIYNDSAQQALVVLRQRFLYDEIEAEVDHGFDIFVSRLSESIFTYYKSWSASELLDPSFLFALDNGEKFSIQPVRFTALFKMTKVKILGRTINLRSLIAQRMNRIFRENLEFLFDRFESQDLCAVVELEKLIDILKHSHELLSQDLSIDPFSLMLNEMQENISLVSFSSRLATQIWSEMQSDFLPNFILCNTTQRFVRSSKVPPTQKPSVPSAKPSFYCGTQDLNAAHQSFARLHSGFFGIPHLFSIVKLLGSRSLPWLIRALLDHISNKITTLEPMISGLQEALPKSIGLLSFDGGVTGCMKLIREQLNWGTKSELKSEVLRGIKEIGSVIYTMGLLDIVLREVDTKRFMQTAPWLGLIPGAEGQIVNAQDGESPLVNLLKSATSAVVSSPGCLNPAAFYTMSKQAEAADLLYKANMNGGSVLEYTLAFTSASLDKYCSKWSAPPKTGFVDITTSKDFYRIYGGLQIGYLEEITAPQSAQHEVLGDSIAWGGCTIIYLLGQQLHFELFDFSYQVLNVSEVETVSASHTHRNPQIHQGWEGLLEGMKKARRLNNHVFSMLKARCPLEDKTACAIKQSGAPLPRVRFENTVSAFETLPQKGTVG

Sequence of Rac-like GTP-binding protein ARAC4 (Arabidopsis thaliana (Mouse-ear cress)), Q38919 T19N (Q38919 whole entry T19N): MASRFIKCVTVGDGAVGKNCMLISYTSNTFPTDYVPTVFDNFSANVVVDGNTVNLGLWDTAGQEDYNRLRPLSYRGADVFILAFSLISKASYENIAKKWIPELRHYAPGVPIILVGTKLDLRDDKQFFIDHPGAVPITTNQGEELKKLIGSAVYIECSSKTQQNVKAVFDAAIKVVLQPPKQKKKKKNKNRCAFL
Sequence of Rac-like GTP-binding protein ARAC4 (Arabidopsis thaliana (Mouse-ear cress)), Q38919 D120A (Q38919 whole entry D120A): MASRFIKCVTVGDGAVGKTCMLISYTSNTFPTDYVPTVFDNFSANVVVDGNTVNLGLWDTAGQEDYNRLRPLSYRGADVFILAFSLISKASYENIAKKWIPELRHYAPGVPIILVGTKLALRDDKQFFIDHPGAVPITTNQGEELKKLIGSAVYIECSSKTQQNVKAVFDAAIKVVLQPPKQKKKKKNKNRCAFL

Row | effect of a mutation on the interaction | Substance
1 | disrupting interaction | Rac-like GTP-binding protein ARAC4 (Arabidopsis thaliana (Mouse-ear cress)), Q38919 D120A
2 | disrupting interaction | Rac-like GTP-binding protein ARAC4 (Arabidopsis thaliana (Mouse-ear cress)), Q38919 T19N
